Laboratory results as given in the supplement of paper PMC9170038.

Tested on: MS2 coat protein
Experiment: apparent KD of MS2 coat protein; designed switch direction (-1 OFF switch, 1 ON switch): -1; higher = weaker reporter binding
Procedure, shortened: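 For each design, the apparent KD is the median over clusters of curves fitted to normalised cluster fluorescence. Clusters held RNA switches with common flanks, transcribed on Illumina chips by stalled E. coli RNA polymerase. These were titrated with SNAP-549-labelled MS2 coat protein, doubling from 0.7 or 1.5 nM to 3 µM, without input, with 200 uM small-molecule ligand, or with an oligonucleotide input.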

[1] = Eterna round: R95, input ligand: FMN 200 uM
[2] = Eterna round: R95, input ligand: microRNA oligo, concentration not stated
[3] = Eterna round: R95, input ligand: none
[4] = input ligand: microRNA oligo, concentration not stated

| Sequence | apparent KD of MS2 coat protein [1] [nM] | apparent KD of MS2 coat protein [2] [nM] | apparent KD of MS2 coat protein [3] [nM] | apparent KD of MS2 coat protein (input ligand: FMN 200 uM) [nM] | apparent KD of MS2 coat protein (input ligand: none) [nM] | apparent KD of MS2 coat protein [4] [nM] |
| --- | --- | --- | --- | --- | --- | --- |
| AUAAGCUUUUAAAUCCUUAACAUGAGGAUCACCCAUGUUCGUCUUAUGAUGGUCUGAUCCCUGAGGAUCGGACCGUU [JL-sv1-2.03 Brourd Mod] (puzzle: Sensor v3, turn-off variant 1) | 29.2 | 95 | 30.9 |  |  |  |
| AUUGUGUGAGGAUAUUAAUAGUAAAUGAAUAGAAUUAUGAUUGAGAAGGCACAUGAGGAUCACCCAUGUUCCUU [JR_Ex4_Sub081] (Eterna round: R97, puzzle: Exclusion 4) |  |  |  | 17.8 | 19.6 |  |
| GAAAACCUAGGAUAUACAUGAGGAUCACCCAUGUGAAAACCUCUUAAAACUUAACAAUGUAGAAGGAGGAAAAC [Azaqure] (puzzle: Exclusion 3) | 39.9 | 43.2 | 38.3 |  |  |  |
| UUAUACGUUGAGGAUAUGCGACUGUUUUAAGUUGUAGAAGGCGAUACAUGAGGAUCACCCAUGUUUAUGGGCAU [LRO-Ex6-12] (puzzle: Exclusion 6) |  | 169 |  |  |  |  |
| CUGGUCCGAGGAUAUAUUAUGUGAUACAUGAGGAUCACCCAUGUUAUAUAAUGGAUGUAAAUAGAAGGCGGACUAG [JL-ex5-3.16] (puzzle: Exclusion 5) | 60.3 | 43.2 | 44 |  |  |  |
| CAUUUGUGAGGAUAUCAGGUGUGCUAGCGUACUGGUACAUCUGAGAAGGCACAUGAGGAUCACCCAUGUUUCUU [Mat - Exclusion 4 - Mod of JL - D37] (puzzle: Exclusion 4) |  | 15.9 |  |  |  |  |
| UUUUUAUAUGAAGGAUAUACUUAACAUGAGGAUCACCCAUGUGGUGUUGUGAGUGAGUGAGUUUAGUAGAAGGUCAAGAAUUUU [JMF's solution 34] (Eterna round: R96, puzzle: Exclusion NG 2) |  |  |  | 521 | 324 | 399 |
| CUUAGCGUAGGAUAUUAGUACAUGAACAUGAGGAUCACCCAUGUGAGGUGGGUCUUAGAUUAAGAAGGGCGAAGAA [EX5 #32] (Eterna round: R97, puzzle: Exclusion 5) |  |  |  | 221 | 249 |  |
| GCUGGACGAGGAUAUACAAUCGUGCUUCGGCACGUAAGGUCACAUGAGGAUCACCCAUGUAGAAGGUGUCCAGC [E2/2-B2] (Eterna round: R97, puzzle: Exclusion 2) |  |  |  | 54.8 | 18.3 |  |
| AUAAAUCAUGUAGGAUAUGCGUGGCGAAGCUAUGCAGAAGGACAUGAGGAUCACCCAUGUGCUUCCGUCUGCGUACAGACGGAA [Mat - Exclusion NG 1 - Mod of JL - D35] (Eterna round: R96, puzzle: Exclusion NG 1) |  |  |  | 64.8 | 190 | 228 |
| UACAUGAGGAUCACCCAUGUUUUGUCGUGUAUGGUAUUUAUCUAGGAUAUCAAGUUAAUUAUUUAUGAGAAGGAGAAUAUUAAU [JMF's solution 28] (Eterna round: R96, puzzle: Exclusion NG 3) |  |  |  | 37 | 39 | 31.7 |
| ACUCGACAUGAGGAUCACCCAUGUGAGGAUAUGGCCUGUAUGGCGUGAGCUGGAUCAAUCAGAAGGCGCGUGGG [salish99_ex1_r4_052] (Eterna round: R97, puzzle: Exclusion 1) |  |  |  | 80.4 | 56 |  |
| AGUAACUAUCACGAAAGUGAUAGUUACAAAACAAGUGAAACAUGAGGAUCACCCAUGUCCUCACUUGCUCGUCUUAU [Sensor 3 - 5] (puzzle: Sensor v3, turn-off variant 2) | 14.2 | 128 | 13.4 |  |  |  |
| ACAAGCUUGUAAUGAUUUAACAUGAGGAUCACCCAUGUAAAUGGAAGAACCAAUUUGAUAUGAUUUACUCGUCUUAU [JR_STOV1_Sub008] (Eterna round: R97, puzzle: Sensor, turn-off variant 1) |  |  |  | 495 | 589 |  |
| GCCAGAGCAGGAUAUUCAAUAUGUCACAUGAGGAUCACCCAUGUCCAGCGAAAGCUGGAGGGAGAAGGGCUCUGGC [Fiskers Ex 5 - 18] (puzzle: Exclusion 5) | 23.7 | 89.3 | 119 |  |  |  |
| AAUACAAGCGAGAUCCUAAACAUGAGGAUCACCCAUGUGCUCGUCUUAUAAAGUACUAUCACGAAAGUGAUAGUACA [Sensor 3, v1 - 67] (puzzle: Sensor v3, turn-off variant 1) | 16.7 | 157 | 16.5 |  |  |  |
| AGCCUAGCAGGAUAUGCCCGGGAUAACAUGAGGAUCACCCAUGUGACCGAUUGAUGUCUUGCAGAAGGGCUAGGGA [JL-EX5-4.02 ViennaUCT mod] (Eterna round: R97, puzzle: Exclusion 5) |  |  |  | 58.4 | 15.7 |  |

| Sequence | apparent KD of MS2 coat protein [1] [nM] | apparent KD of MS2 coat protein [2] [nM] | apparent KD of MS2 coat protein [3] [nM] | apparent KD of MS2 coat protein (input ligand: FMN 200 uM) [nM] | apparent KD of MS2 coat protein (input ligand: none) [nM] | apparent KD of MS2 coat protein [4] [nM] |
| --- | --- | --- | --- | --- | --- | --- |
| AACCUGAGGCAAAGCUUUAGGUGUACAUGAGGAUCACCCAUGUAGGAUAUGGUAGGCAAAGCUUACCAGAAGGACAUGUUAAUU [Mat - Exclusion NG 3 - Mod of JL - D38] (Eterna round: R96, puzzle: Exclusion NG 3) |  |  |  | 172 | 67 | 61.5 |
| GAAAACGCAGAGGAUAUUUCAGAUCAAAGCUGCAAAGAAGGCUGCACAUGAGGAUCACCCAUGUGGUCUUUAAA [Quesina] (puzzle: Exclusion 6) | 167 | 17.8 | 16.4 |  |  |  |
| GAUCAUGCAGGAUAUACAGUUUCCAUGAUAACAUGGUCCUCACAUGAGGAUCACCCAUGUAGAAGGGCAUGAUC [Omei Ex2 A29] (Eterna round: R97, puzzle: Exclusion 2) |  |  |  | 258 | 1080 |  |
| AGACAGUGAGGAUAUGCAGUCGGUGUCACCUGAUGAGAAGAACAUGAGGAUCACCCAUGUAGAAGGCACAGGAA [Tearrice] (puzzle: Exclusion 2) |  | 40.6 |  |  |  |  |
| GAUUAUGCGAGCUUUAGGGACAUGAGGAUCACCCAUGUUCGUCUUAUUAGUCUGGGUACACUGACAUACCUAAAUCU [JMF 71] (puzzle: Sensor v3, turn-off variant 1) | 24.6 | 35.2 | 25.4 |  |  |  |
| CCCUCACAUGAGGAUCACCCAUGUCAGGAUAUCCAAGGCGAUCACCAAAAUAAAGCAAGGAGAAGGGACUUGGC [Enona] (Eterna round: R97, puzzle: Exclusion 1) |  |  |  | 71.5 | 41.4 |  |
| AUUACGCAGUAGGAUAUGGGCGGUGAGCACCGUCCAGAAGGACUGACAUGAGGAUCACCCAUGUCCUCCCACAC [Eternabot (L2) Solution 42] (Eterna round: R97, puzzle: Exclusion 6) |  |  |  | 497 | 55.8 |  |
| CUACUACAUGAGGAUCACCCAUGUGAGGAUAUCAGUGGUGCUGCUAGGUAGUCCGGACUGAGAAGGCGCAUAGU [Mod-Malcom] (Eterna round: R97, puzzle: Exclusion 1) |  |  |  | 43.1 | 52.8 |  |
| CUCCUCAUGGCGCCUAAACACAUGAGGAUCACCCAUGUAUAGGCUUUUUGCCGUCUUAUAAUAAAACCGAGGAUGCG [Rianza] (puzzle: Sensor v3, turn-off variant 1) | 28.7 | 276 | 21.9 |  |  |  |
| CCCAGUUACGGAGGAUAUUGUACAUGAGGAUCACCCAUGUAAUAAAUGAGGAUUUCGGGUGUCUACAAGAAGGCCGGGAUAGGC [Ostracism 18 - Jieux - Exclusion NG 2] (Eterna round: R96, puzzle: Exclusion NG 2) |  |  |  | 262 | 66 | 85.3 |
| CCCUCACAUGAGGAUCACCCAUGUCAGGAUAUCUAGUCAGAUAGUGUAGCACUAAUGAAGAGAAGGGACGUAUA [Lezagees] (puzzle: Exclusion 1) |  | 16.9 |  |  |  |  |
| GAGCCAACAGGAUAUACAUGAGGAUCACCCAUGUGAAUUCGCUACACAGGGAUGAACAGUAGAAGGGUUGGUAU [Eternabot (Original) Solution 49] (Eterna round: R97, puzzle: Exclusion 3) |  |  |  | 165 | 229 |  |
| UACAUGAGGAUCACCCAUGUUUUGUCGUGUAUGGUAUUUAUCUAGGAUAUCAAUCAAUUUAUUUAUGAGAAGGAGAAUAUUAAU [JMF's solution 49] (Eterna round: R96, puzzle: Exclusion NG 3) |  |  |  | 37.8 | 33.8 | 26 |
| UUUUGGCAUGUAGGAUAUGGGUCCGAUUAGGAUUUAGAAGGACAUGAGGAUCACCCAUGUGCAUUUAAUUGGUCUUUACUUUUU [EXclNG1-LROPPY13] (Eterna round: R96, puzzle: Exclusion NG 1) |  |  |  | 115 | 72.9 | 61.2 |
| GACAGUCGAGGAUAUACGAUCGUGCUUCGGCACGUAAGAUCACAUGAGGAUCACCCAUGUAGAAGGCGACUGUC [Mod 6 - Jieux - Exclusion 2] (Eterna round: R97, puzzle: Exclusion 2) |  |  |  | 234 | 31.7 |  |
| GUGGUAGGUUUUUCGAGUAACAUGAGGAUCACCCAUGUAUUAGUUGGAUGUAUCAAGCUUUUUGCUCGACUUAUAAA [JR_SV3TOV1_Sub043] (puzzle: Sensor v3, turn-off variant 1) | 249 | 40.6 | 288 |  |  |  |
| AAUAACAGAGGAUAUACUGUUUUAUGUGUUUGUUAUUUUGAACAUGAGGAUCACCCAUGUAGAAGGCUGAAUAA [JMF 23] (puzzle: Exclusion 2) |  | 21.3 |  |  |  |  |
